Measurements: article PMC3926839, “Evaluation of Zinc (II) chelators for inhibiting p53-mediated apoptosis”

Target: FLAG-p53 (UniProt P04637 1-393)
Test: EMSA; BPA (Zn(II) chelator) preincubated; no inhibition; FLAG-p53 12.5 nM; 10 mM Tris-HCl pH 7.4, 2.5 mM DTT, 0.05% NP-40; 10 min preincubation with chelator at 37 °C, then 3 h with probe at 37 °C; electrophoresis at
Conditions: protein: recombinant; tags: FLAG; chain copies: 4; label: FITC; blunt (only the sense strand is printed; it is self-complementary)

Sequence of FLAG-p53 (P04637 whole entry): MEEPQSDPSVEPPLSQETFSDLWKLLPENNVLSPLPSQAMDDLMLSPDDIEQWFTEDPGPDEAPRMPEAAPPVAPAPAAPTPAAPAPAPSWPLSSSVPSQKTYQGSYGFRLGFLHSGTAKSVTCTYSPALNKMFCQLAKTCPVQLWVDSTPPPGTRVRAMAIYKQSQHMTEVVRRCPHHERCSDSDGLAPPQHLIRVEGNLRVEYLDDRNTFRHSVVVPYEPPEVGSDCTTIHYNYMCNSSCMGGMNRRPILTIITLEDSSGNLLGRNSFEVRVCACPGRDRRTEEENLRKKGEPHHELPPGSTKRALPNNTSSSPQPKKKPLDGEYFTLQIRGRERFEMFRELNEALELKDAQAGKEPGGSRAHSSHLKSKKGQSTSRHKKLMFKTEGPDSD

B1: p53 consensus probe (dsDNA)
DNA 1: GGACATGCCCGGGCATGTCC
DNA 2: GGACATGCCCGGGCATGTCC
binding result: binds
